Data published in the NTF2 design screens of Basanta et al. (2020).

Assay: protease stability score; higher = more stable; yeast display proteolysis, trypsin and chymotrypsin;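 note: relative to predicted unfolded state with 0 unfolded-like and 1 meaning tenfold more protease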

Sequence	protease stability score
SDVLESTKSFLRFFVHAMITGNEEELSRNLDPNVRLLFNGVNYHGMEELVRLLIELGIKIHEWHTHDLKFQGEKLYYLGRRDGEVNGRRSEEEVEFIIFKFNGRWFLHEMRIH	0.627
SDWDEWTKRMLDILIEALETGDEEVLSRLIDPNMRLDINGQEFHGREVILRHLITEIQRADHVEFRIEDRDLIDGRVYMEVEKIIHINGVEFRHHVLIIIEKVDGRWYINSVHVR	2.46
SDWDKITKEMAELILTAEETGDFKTLWRLMDPNVKLNIGDKTHHGREEYLKWMHEHLKKVPNLTLKLRDVHVQGDKVHLRVEVEIGDKTIDSEIHLEIINGRIEHLRIIDL	0.957
SDWEDLVRMAFHHFIHSMRTGDEDIIHQLLDPEVKINVGDKVIHGREQAFDYIHTLVNRADHIRFRLDHLDVQGDFIEIRTTVDLTYGDKHHRMEVTFFSRKVDGVWLIERVQIK	1.27
SDWNEFLIEVAELLLRWLSTGDEESFHRYVDPRVRLEFNGKELHGREELARFLRHLRWILDHLEFTSREDQGEKFRVEGKSHGHLFFENHFERHDLKNDLNLILVNGRIKEISLRLE	1.42
SDYEKEVLDYAHTFLHAFLTGNEFILLKLLDPHVRIEIHFDGVDFLRHGRETFSKRAVDHIREWRVEIRLHDLHVVDGVVHLNTRLHVDYGDKHIHITQHITLFVINGRMKTVHIRHE	1.26
SDYERLFTIAVQLVIDVIQTGNFRELERLLDPNVRVDINGQEFVGREELVHWMHKVIRRADHLEITLRDVELQGDKLVLDMELVERYDGKEYRTRIRVFAHKINGQWYIRTFEVR	1.51
SDYTEVAHEIMDEWSKAILTGDEDTVEELLDPNVRVDINGQEIHGWETIFKKLRRFVDELGIDHVHVNTKRVKLIGNYIHVDGELRYHQGDFHIVRKVRLLIVKINGQWLIREINLK	2.42
SEAEEFARRVIELWIRSILTGNPDMSEKLADPNYKVHFNGVNIVGMEEFYRHLEEWRIHIDDFRIRDVRVQGDKMINDTEERITIKYGDKEIHLDVRLEIIIRKIDGRWHMHSIILH	2.2
SEAEERAEKFIELLTKALLTGDWRMISRMFDPHVRIIIGDKESHGMESLRDTLEHLRFDHINTRIEHVQVQGDWVEIHIRVHMRITVDGKEFHVETQMHYVLIKIDGKWVVREIEIR	2.44
SEAEESARKLTHDILRLFLTGDEDLISRYFDPNVRHHINGQEEHGMEKMVKMLNHMRFRDMHLRDVRIHIIDGVATAHVEGELHGEVNGVRRDIKSELIIITEKFNGRWRLSSISFIIE	0.256
SEAEKRSEIILRLILHSLHTGDEHTLESLFDPNVRILIGDKELVGMEELSKLLRHIRIERVHIHLRDDRQQGDKADMDVELHRHGTFNGVRRDESSRIWIHAEKVDGRWVISEVIVH	1.02
SEAERDAKELLELIVTTMRTGDEETLNRLMDPHTRLHVNGRDLIGRELMTEFLHEIRIEDSRTRDVRVFNGRLEVEGKLRGDWNGVEREVETRYIVEKVNGRWLLHSVTFE	0.413
SEDAEYIKEFAELFFRWWITGDEEHLRSLADPHTRSDVNGRDIHGMELWSKMLLDHLTKIKNVRYTLREVRFFENHTELDMKVDINGKEMKFSIRVSLINGRLHSITVRLHSE	1.35
SEDAKLTEELFREWLTIMLTGDWEQSLRRIDPHARLIIDGRHFHGREEFSKVVKELRFKDMIDRRIHVDENEVFVDVELRGVINGREVTIKTHILIVVIDGVIHSIEIRNR	1.29
SEDDDHSEHMYRRILELWKTGNWRLFHELLDPNTRFEIGDKEFHGREEVVEYLRRDLEKFKNIRFHIRQHEVVGNKLHIDGEIIFNGKHEHVHIILLIVDGKIKEIRFESR	2.72
SEDDDLAKDFVSLMLHEFRTGNEESMSKLVDPHVRLHIGDKTYVGRENVSRILKKELRDYGIDHMHIDHLRVQGDKVHIHTTYRQGDKEMETHFVILKVDGKWFMHEIEIR	1.88
SEDDDLIREFFEDWVKSVLTGDEDTIAKLADPHTRHEYGDKEHHGRDLVVEMLTFLYKHIRFEDVRLRHFDIQGNKIILHGKVEGKIDGRHRTFDVTIEVIKVNGQWLWHTIVIR	1.89
SEDDDSAREILRILTEAWYTGNEDELIRLMDPNARSLFDGVEFHGRELVRLWKERVDHTHSIKVKLHSMRIIGNKLEVDGRLEQEGEINGRRFLIVVEVHLIILKVNGRWRMHSVEVR	1.68
SEDDEAVSHALHLLSEVLLTGDERTWKRLADPNVKLEFNGREFHGMEEWKRMLDHIRIDHVKIELERSDSIGDKMHTHGRLIVHTTINGVELDRITDVRFIIEKVDGRWKLTSLHIH	1.29
SEDDEDLKFAWDHLLRSWLTGNFDFFKEMFDPHTRLEQGEKEHHGRNAFERYLRELGIDHIKNIHIEDVEIQGDKMRLHGRQHIFVNGREINLEVTYIILKINGQWHLHRVRIK	0.846
SEDDEDNERWFERLLHSLHTGNEELTRKLMDPNVRVDFNGKDLHGMDHMVKLVRHLRNRVDHLHMLVHHSDNINGVAHNDVTLELRYGDKTERLRVRIVASKVDGRWILKSVEID	1.28
SEDDEDVERAAKLMLHILRTGDERHLHEYLDPNVRSIVNGREFHGRESLLHVMTLQMRELGIDHINVRRVKYDEDEVHFFMNVNINGQHREVIFRAKKINGRWIFHEVELR	1.7
SEDDEEKEEYLRKELEAHRTGDWRLFRELIDPHTKIHINGVLFVGWKDATRFFKEIRVKDHKVHRVRNIDGRIEMDGELNIDIDGREDIMIVHIRAKKVNGRWIVDSVEFR	1.19
SEDDEELEEAARRTLKIIRTGDEDLYTRLADPHDKMQIDGVETHGMEEISRWLKEHRDRFKGLKMIERRIRVTSIDGQVRVHIDTELRVDGVTQRVELNWIASKVDGRWRLERVEFIIR	0.745
